This is an account of results in the supplement of paper PMC11246515.

This data set in a line: total protein half-life in vivo (active degradation + dilution); higher = more stable protein.
[1] abbreviates: E. coli NCM3722 delta-clpP delta-lon delta-hslV, growth: N-lim chemostat, doubling time 6 h.
[2] abbreviates: wild type E. coli NCM3722, growth: P-lim chemostat, doubling time 6 h.
Setting [3] is: E. coli NCM3722 delta-clpP, growth: N-lim chemostat, doubling time 6 h.
[4] abbreviates: E. coli NCM3722 delta-hslV, growth: N-lim chemostat, doubling time 6 h.
[5] abbreviates: E. coli NCM3722 delta-smpB, growth: N-lim chemostat, doubling time 6 h.
Setting [6] is: wild type E. coli NCM3722, growth: C-lim chemostat, doubling time 3 h.
[7] abbreviates: wild type E. coli NCM3722, growth: C-lim chemostat, doubling time 6 h.
Where [8] appears, read: wild type E. coli NCM3722, growth: C-lim chemostat, doubling time 12 h.
The mark [9] stands for this setting: wild type E. coli NCM3722, growth: P-lim chemostat, doubling time 12 h.
[10] abbreviates: E. coli NCM3722 delta-lon, growth: N-lim chemostat, doubling time 6 h.
Setting [11] is: wild type E. coli NCM3722, growth: N-lim chemostat, doubling time 6 h.
Where [12] appears, read: wild type E. coli NCM3722, growth: N-lim chemostat, doubling time 12 h.

± gives the standard deviation of the averaged measurements.

Consider “MSDLHNESIFITGGGSGLGLALVERFIEEGAQVATLELSAAKVASLRQRFGEHILAVEGNVTCYADYQRAVDQILTRSGKLDCFIGNAGIWDHNASLVNTPAETLETGFHELFNVNVLGYLLGAKACAPALIASEGSMIFTLSNAAWYPGGGGPLYTASKHAATGLIRQLAYELAPKVRVNGVGPCGMASDLRGPQALGQSETSIMQSLTPEKIAAILPLQFFPQPADFTGPYVMLTSRRNNRALSGVMINADAGLAIRGIRHVAAGLDL [P0CI31]”, for which the “total protein half-life in vivo” value under setting [1] came out at 6.21 ± 0.63 h and the “total protein half-life in vivo” value under setting [2] came to 3.6 ± 0.55 h.

Consider “MTVRILAVCGNGQGSSMIMKMKVDQFLTQSNIDHTVNSCAVGEYKSELSGADIIIASTHIAGEITVTGNKYVVGVRNMLSPADFGPKLLEVIKEHFPQDVK”, for which the “total protein half-life in vivo” value is more than 8 h under setting [1]; 5.3 h under setting [3]; 6.08 ± 2.4 h under setting [4]; 3.21 h under setting [5]; 2.24 h under setting [6]; 3.71 h under setting [7]. The “total protein half-life in vivo” value was determined as 4.74 ± 0.78 h under setting [8], 5.12 ± 1.8 h under setting [2] and 9.81 h under setting [9].

With “MVNLVIVSHSSRLGEGVGELARQMLMSDSCKIAIAAGIDDPQNPIGTDAVKVMEAIESVADADHVLVMMDMGSALLSAETALELLAPEIAAKVRLCAAPLVEGTLAATVSAASGADIDKVIFDAMHALEAKREQLGLPSSDTEISDTCPAYDEEARSLAVVIKNRNGLHVRPASRLVYTLSTFNADMLLEKNGKCVTPESINQIALLQVRYNDTLRLIAKGPEAEEALIAFRQLAEDNFGETEEVAPPTLRPVPPVSGKAFYYQPVLCTVQAKSTLTVEEEQDRLRQAIDFTLLDLMTLTAKAEASGLDDIAAIFSGHHTLLDDPELLAAASELLQHEHCTAEYAWQQVLKELSQQYQQLDDEYLQARYIDVDDLLHRTLVHLTQTKEELPQFNSPTILLAENIYPSTVLQLDPAVVKGICLSAGSPVSHSALIARELGIGWICQQGEKLYAIQPEETLTLDVKTQRFNRQG”, the “total protein half-life in vivo” value reads like this: under setting [1], 5.07 ± 0.8 h; under setting [3], 5.24 ± 0.96 h; under setting [4], 4.67 ± 0.96 h; under setting [10], 4.07 ± 0.32 h; under setting [5], 3.51 ± 0.52 h; under setting [6], 3.39 ± 0.48 h. Also, the “total protein half-life in vivo” value came out at 6.02 ± 0.54 h under setting [7]; 10 ± 0.98 h under setting [8]; 4.01 ± 0.29 h under setting [11]; 6.3 ± 0.85 h under setting [12]; 5.33 ± 0.27 h under setting [2]; 11.4 ± 1.5 h under setting [9].

For the sequence “MTSLVVPGLDTLRQWLDDLGMSFFECDNCQALHLPHMQNFDGVFDAKIDLIDNTILFSAMAEVRPSAVLPLAADLSAINASSLTVKAFLDMQDDNLPKLVVCQSLSVMQGVTYEQFAWFVRQSEEQISMVILEANAHQLLLPTDDEGQNNVTENYFLH [P0AAY6]”, the “total protein half-life in vivo” value under setting [1] amounted to 2.64 ± 2.3 h; the “total protein half-life in vivo” value under setting [4] is 2.7 h; the “total protein half-life in vivo” value under setting [10] was found to be 4.39 h; the “total protein half-life in vivo” value under setting [5] came to 1.74 ± 1.4 h; the “total protein half-life in vivo” value under setting [8] was 1.21 h; the “total protein half-life in vivo” value under setting [11] was found to be 0.868 h.

As to “MSDNDELQQIAHLRREYTKGGLRRRDLPADPLTLFERWLSQACEAKLADPTAMVVATVDEHGQPYQRIVLLKHYDEKGMVFYTNLGSRKAHQIENNPRVSLLFPWHTLERQVMVIGKAERLSTLEVMKYFHSRPRDSQIGAWVSKQSSRISARGILESKFLELKQKFQQGEVPLPSFWGGFRVSLEQIEFWQGGEHRLHDRFLYQRENDAWKIDRLAP [P0AFI7]”, the “total protein half-life in vivo” value by setting is: under setting [1], 4.89 ± 0.34 h; under setting [3], 4.63 ± 0.17 h; under setting [4], 4.2 ± 0.047 h; under setting [10], 4.66 ± 0.076 h; under setting [5], 4.39 ± 0.58 h; under setting [6], 3.53 ± 0.6 h. Further, the “total protein half-life in vivo” value is, setting by setting: under setting [7], 5.55 ± 0.32 h; under setting [8], 10.8 ± 1.7 h; under setting [11], 4.14 ± 0.077 h; under setting [12], 8.66 ± 0.44 h; under setting [2], 5.65 ± 0.12 h; under setting [9], 11.2 ± 0.29 h.

As to “MQERIKACFTESIQTQIAAAEALPDAISRAAMTLVQSLLNGNKILCCGNGTSAANAQHFAASMINRFETERPSLPAIALNTDNVVLTAIANDRLHDEVYAKQVRALGHAGDVLLAISTRGNSRDIVKAVEAAVTRDMTIVALTGYDGGELAGLLGPQDVEIRIPSHRSARIQEMHMLTVNCLCDLIDNTLFPHQDD”, the “total protein half-life in vivo” value by setting is: under setting [1], 5.68 ± 1.7 h; under setting [3], 6.95 ± 0.57 h; under setting [4], 4.6 ± 0.094 h; under setting [10], 5.12 ± 0.18 h; under setting [5], 5.68 ± 1.4 h; under setting [6], 3.087 ± 0.0052 h. For the same sequence, the “total protein half-life in vivo” value by setting is: under setting [7], 5.56 ± 0.26 h; under setting [8], 11.1 ± 0.025 h; under setting [11], 4.54 h; under setting [12], 7.55 ± 1 h; under setting [2], 5.81 ± 0.52 h; under setting [9], 13 ± 3.2 h.

For “MTSSLPCGQTSLLLQMTERLALSDAHFRRISQLIYQRAGIVLADHKRDMVYNRLVRRLRSLGLTDFGHYLNLLESNQHSGEWQAFINSLTTNLTAFFREAHHFPLLADHARRRSGEYRVWSAAASTGEEPYSIAMTLADTLGTAPGRWKVFASDIDTEVLEKARSGIYRHEELKNLTPQQLQRYFMRGTGPHEGLVRVRQELANYVDFAPLNLLAKQYTVPGPFDAIFCRNVMIYFDQTTQQEILRRFVPLLKPDGLLFAGHSENFSHLERRFTLRGQTVYALSKD”, the “total protein half-life in vivo” value reads like this: under setting [3], 6.56 h; under setting [6], 1.34 h; under setting [8], 3.42 h.

As to “MDKIFVDEAVNELQTIQDMLRWSVSRFSAANIWYGHGTDNPWDEAVQLVLPSLYLPLDIPEDMRTARLTSSEKHRIVERVIRRVNERIPVAYLTNKAWFCGHEFYVDERVLVPRSPIGELINNKFAGLISKQPQHILDMCTGSGCIAIACAYAFPDAEVDAVDISPDALAVAEQNIEEHGLIHNVIPIRSDLFRDLPKVQYDLIVTNPPYVDAEDMSDLPNEYRHEPELGLASGTDGLKLTRRILGNAADYLADDGVLICEVGNSMVHLMEQYPDVPFTWLEFDNGGDGVFMLTKEQLIAAREHFAIYKD”, the “total protein half-life in vivo” value by setting is: under setting [1], 5.46 ± 2.1 h; under setting [3], 3.84 ± 0.055 h; under setting [4], 3.656 ± 0.0091 h; under setting [10], 3.97 ± 0.38 h; under setting [5], 3.9 ± 0.11 h; under setting [6], 2.81 ± 0.12 h. In addition, the “total protein half-life in vivo” value is 5.74 ± 0.41 h under setting [7]; 10 ± 0.21 h under setting [8]; 3.85 ± 0.054 h under setting [11]; 6.16 ± 0.26 h under setting [12]; 5.56 ± 0.2 h under setting [2]; 11 ± 1.2 h under setting [9].
